experiment: soluble on expression in E. coli; label from the status in PepcDB or PDB records

Sequence | soluble on expression in E. coli
MGSDKIHHHHHHMLTSDPSESTAHLQRTISNLSARNAKLAELLKASRDKLSILQDQLEDLAAPPSTYGTFLEFSGGRETAEVFTAGRHMRLRISPDVEKAELVPGVQVRLGEASQVVEVCDISTTGQLATLVELLADNRGLICDHTGEERVVKLAAALTEGVDKLPKAGDTLLVDPRAGYAFEVIPKTEVSTLALEEVPDVTYADIGGLNSQIELIHDAVELPFTQPDLYRAYDLKPPKGVLLYGPPGCGKTLIAKAVANSLAQRIGAGNRSYFINVKGPELLNKYVGETERRIRLIFERARELAEEGRPVIVFFDEMESIFRTRGSGVSSDMETTVVPQLLTELDGVESLSNVIIIGATNREELIDPAILRPGRLDVKIRVERPDKQAARDVFARHLKQNIPTAEPIDSLINNAVDHLYADNPYVELSLIDGSTEILHYRDFVSGAMIANIVDRAKKCAIKDHIAGRHSGVASEHLIAAINAENHESEDLPNTSNPDDWSRIIGRHGLRVAHARVLGGQR | not soluble
MGSDKIHHHHHHMLVEHDISDVRVGMYIIEITVPKNKFRLAKQGWLDNERIIDALKSKSVEKVLIDASKTRIVADQNATTPSPSVATPSVTTKKGTKTSSESVKPKAASVRTKYQFNQEVIKAKQVFAESKAIQAKLFHNAQRGLPLEMESVCKITSESTDLIFNNPNALACVLNIRNKDEYLLEHSVSVSILMTMFALYLKIDRDIVNQLAIGAFLHDVGKIMVPDNILNKPGKLTDDEFFVMKSHARHSVSIMRKTPGISAISMEVAGQHHEKLNGKGYPLGLKGDKISLYGRMSSICDIFDALTATRCYKQGYPQVKCFGILRKLAENNELDIDLVDKFIKCMGVYPVGAVVQLDSNRLAIVESHNIADPIRPNVRPFYRLDPKLFEKGLDVDLSSAADEQIVKCVRADDFELDMQQIIEFLAQEA | not soluble
MGSDKIHHHHHHMLVFFKERLVLLSVPKTGTTAYQTALRARADIVVSDPPELKHAPIYRYDRFFRPIFEKMFGVEMEIMAVVREPVDWLGSWYRYRRRPFMQGKPNATHGLSFDDFVTAYMQGKRPGFANVGSQARFLTPRPNGCTVSHLFKYENQPGIRAFLQDRLQTEIAPPRENVSPDLPLDLSPEIAERLRRKCAEEFDLHASAT | not soluble
MGSDKIHHHHHHMLVGREKELHLLHDIQNDDSSHFVAVYGRMREGKTFLIREAFGYRFTFQHAGLSEGGMKEQIYAFTSSLKDAGYEVKKQPQNWLEAFEALKDVIRLSSEKKKIIFIDELSWMDTQKSDLMVALENFWNGFASARKDIVLIVCASATSWMLSKVVHNKGGLYNRLTEQIHLRTFCLRECEAYVKAAGLALNRNQILQYYMIFGGVPYYWGFLKKGLSLSQNIDSILFEKDAPLRDEFKYLYASVFKKPENYVKIIEALGTKKVGMTREEIITSTKIPNSGDLTTKLEELESCGFIRKYNAFGMKKKNAIYQLMDCFTLFYFKFLKSEPTDEHFWTNQINTPAVNTWLGLAFERVCMEHVDQIKFKLGISGVLTEINSWYCKSDPDNGIFGSQIDMLIARKDQVINLCEMKYSQSEYTITEKVDRSIRNKISDLRVVSGTKYAIYPTLITTYGVVENSYSQELQSVVTMDDLFA | not soluble
MGSDKIHHHHHHMLYAYGARVWALPIFTHQVYLDKPTKPGDKTLSLATTGFDFYVGGRAVLMNGNKREMVDITGIEPDKLEIKRSLLNRFDTSTVVYPLRSAVLTDMPQLTRLSDEVATAQIRLQIHEHNGYAADIRHLPTYRGHPVLEPTSEWSEDITAQYLRLIKQLDNGTALPHYLDTAKNAFQLTNHRFLLDSIEAQHKLRQLFYYLRGRQKAIWVASSTSDLTLANDIVGKNLDIELVYYTTCLLKQAGRQDIRIECTDGSVHYRRILAATVSNNQTERLALDGEALNLKREQVAKISFLTLSRLESDTIDWVHHTDTVASVTVSFRGLRDELEV | not soluble
MGSDKIHHHHHHMMDTVKNRRTIRKYQQKDITPDLLNDLLETSFRASTMGGMQLYSVVVTRDAEKKEILSPAHFNQPMVKEAPVVLTFCADFRRFCKYCQERNAVPGYGNLMSFLNAAMDTLLVAQTFCTLAEEAGLGICYLGTTTYNPQMIIDALHLPELVFPITTVTVGYPAESPKQVDRLPIEGIIHEESYHDYTAEDINRLYAYKESLPENKLFIEENQKETLPQVFTDVRYTKKDNEFMSENLLKVLRRQGFMD | not soluble
